Columns and labels:
Assay in all cases: SPR; mouse CACHD1ECD as analyte; FZD CRDs or LRP6 fragments immobilised; equilibrium dissociation constants
[1] = biological target: human FZD7 cysteine-rich domain (FZD7CRD) (human) (UniProt O75084)
[2] = biological target: human FZD8 cysteine-rich domain (FZD8CRD) (human) (UniProt Q9H461)
[3] = biological target: human LRP6 membrane distal fragment (LRP6_(P1E1P2E2)) (human) (UniProt O75581)
Sequence of human LRP6 membrane distal fragment (LRP6_(P1E1P2E2)) (human) (O75581 20-1613): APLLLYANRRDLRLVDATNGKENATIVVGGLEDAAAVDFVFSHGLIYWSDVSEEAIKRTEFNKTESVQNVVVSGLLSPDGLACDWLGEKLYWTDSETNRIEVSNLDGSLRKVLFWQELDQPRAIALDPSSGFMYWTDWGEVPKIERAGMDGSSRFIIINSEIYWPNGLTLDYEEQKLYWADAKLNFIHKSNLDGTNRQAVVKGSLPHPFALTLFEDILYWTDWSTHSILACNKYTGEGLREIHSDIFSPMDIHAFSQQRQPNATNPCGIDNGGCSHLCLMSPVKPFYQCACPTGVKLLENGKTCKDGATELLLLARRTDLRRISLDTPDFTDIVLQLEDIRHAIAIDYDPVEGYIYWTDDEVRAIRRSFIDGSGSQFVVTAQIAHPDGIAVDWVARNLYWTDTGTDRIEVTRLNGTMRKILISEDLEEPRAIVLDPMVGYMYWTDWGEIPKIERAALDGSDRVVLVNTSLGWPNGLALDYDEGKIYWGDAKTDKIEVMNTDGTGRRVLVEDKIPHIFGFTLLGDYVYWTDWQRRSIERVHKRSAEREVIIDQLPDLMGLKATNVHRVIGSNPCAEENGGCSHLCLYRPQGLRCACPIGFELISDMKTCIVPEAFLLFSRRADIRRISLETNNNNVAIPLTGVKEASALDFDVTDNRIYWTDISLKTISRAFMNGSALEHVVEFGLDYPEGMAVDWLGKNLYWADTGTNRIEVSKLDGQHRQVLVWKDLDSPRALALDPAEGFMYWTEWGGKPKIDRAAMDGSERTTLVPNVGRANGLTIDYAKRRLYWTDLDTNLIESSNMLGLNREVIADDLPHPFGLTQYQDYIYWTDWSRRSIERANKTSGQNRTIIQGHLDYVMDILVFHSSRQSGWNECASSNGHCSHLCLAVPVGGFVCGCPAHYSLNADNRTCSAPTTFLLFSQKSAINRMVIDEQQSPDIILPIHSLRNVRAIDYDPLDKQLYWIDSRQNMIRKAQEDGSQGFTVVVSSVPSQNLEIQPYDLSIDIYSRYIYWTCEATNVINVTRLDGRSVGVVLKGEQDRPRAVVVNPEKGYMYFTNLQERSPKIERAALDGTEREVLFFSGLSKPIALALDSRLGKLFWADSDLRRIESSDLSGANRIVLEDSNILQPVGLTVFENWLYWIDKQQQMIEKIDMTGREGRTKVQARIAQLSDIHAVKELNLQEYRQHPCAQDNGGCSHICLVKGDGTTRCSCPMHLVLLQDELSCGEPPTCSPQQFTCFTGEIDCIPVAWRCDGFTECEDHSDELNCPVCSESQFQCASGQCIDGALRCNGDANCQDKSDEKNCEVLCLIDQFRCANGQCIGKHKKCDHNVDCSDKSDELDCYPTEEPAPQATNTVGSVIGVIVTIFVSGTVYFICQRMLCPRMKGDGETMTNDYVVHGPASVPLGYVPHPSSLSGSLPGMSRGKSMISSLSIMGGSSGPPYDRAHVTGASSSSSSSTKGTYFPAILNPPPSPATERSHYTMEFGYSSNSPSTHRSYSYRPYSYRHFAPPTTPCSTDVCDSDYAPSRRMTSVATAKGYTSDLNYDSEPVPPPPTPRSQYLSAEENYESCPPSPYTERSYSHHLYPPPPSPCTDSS

Sequence of purified mouse CACHD1 extracellular domain (CACHD1ECD) (Q6PDJ1 50-1109): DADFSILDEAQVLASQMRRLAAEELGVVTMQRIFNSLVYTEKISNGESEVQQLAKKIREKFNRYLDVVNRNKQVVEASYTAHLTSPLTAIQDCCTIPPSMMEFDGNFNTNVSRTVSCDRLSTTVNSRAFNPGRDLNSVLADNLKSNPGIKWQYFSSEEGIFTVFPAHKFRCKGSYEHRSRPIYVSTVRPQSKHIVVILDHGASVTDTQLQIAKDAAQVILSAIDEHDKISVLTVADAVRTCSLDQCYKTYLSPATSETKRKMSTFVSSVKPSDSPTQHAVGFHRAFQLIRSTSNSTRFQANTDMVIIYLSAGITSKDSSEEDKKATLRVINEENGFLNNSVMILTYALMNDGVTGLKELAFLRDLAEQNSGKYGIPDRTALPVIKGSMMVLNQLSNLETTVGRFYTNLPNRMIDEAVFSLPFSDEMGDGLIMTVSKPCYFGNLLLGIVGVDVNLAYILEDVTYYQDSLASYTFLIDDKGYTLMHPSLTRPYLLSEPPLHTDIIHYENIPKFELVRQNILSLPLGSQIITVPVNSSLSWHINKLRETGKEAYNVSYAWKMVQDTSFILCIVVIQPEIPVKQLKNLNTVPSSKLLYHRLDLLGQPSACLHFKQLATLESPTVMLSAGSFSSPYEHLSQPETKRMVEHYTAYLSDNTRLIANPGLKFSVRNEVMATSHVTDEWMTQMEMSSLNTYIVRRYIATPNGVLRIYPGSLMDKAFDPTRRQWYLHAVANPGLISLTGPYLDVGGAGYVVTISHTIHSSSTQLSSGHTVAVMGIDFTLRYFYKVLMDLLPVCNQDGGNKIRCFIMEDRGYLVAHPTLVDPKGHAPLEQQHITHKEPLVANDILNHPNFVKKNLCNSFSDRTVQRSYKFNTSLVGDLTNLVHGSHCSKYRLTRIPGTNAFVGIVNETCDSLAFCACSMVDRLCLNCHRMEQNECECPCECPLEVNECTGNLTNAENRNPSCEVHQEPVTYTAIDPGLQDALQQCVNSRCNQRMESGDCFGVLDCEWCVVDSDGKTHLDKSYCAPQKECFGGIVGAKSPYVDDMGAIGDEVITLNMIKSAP
Sequence of human FZD8 cysteine-rich domain (FZD8CRD) (human) (Q9H461 28-694): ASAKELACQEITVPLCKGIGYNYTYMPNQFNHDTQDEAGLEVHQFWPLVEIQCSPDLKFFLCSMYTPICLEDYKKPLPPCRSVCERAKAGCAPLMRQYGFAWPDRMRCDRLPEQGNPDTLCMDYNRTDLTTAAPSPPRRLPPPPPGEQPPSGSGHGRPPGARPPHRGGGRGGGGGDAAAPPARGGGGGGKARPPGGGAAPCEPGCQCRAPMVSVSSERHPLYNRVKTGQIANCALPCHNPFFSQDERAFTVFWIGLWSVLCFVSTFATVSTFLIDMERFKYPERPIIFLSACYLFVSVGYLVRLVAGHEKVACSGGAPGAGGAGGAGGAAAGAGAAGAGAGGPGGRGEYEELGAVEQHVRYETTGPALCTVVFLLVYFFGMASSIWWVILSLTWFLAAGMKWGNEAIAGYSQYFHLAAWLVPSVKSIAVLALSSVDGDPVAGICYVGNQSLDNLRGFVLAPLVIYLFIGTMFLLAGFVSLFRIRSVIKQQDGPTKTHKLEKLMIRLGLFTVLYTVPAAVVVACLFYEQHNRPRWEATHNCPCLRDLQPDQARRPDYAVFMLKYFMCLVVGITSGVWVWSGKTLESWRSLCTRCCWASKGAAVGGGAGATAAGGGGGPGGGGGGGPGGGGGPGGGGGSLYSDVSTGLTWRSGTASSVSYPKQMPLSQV

purified mouse CACHD1 extracellular domain (CACHD1ECD) (from UniProt Q6PDJ1 50-1109) (domain or fragment)
Kd [1]: 14.2 µM | Kd [2]: 0.95 µM | Kd [3]: 5.86 µM

Reference: paper PMC7615972
